Experimental data taken from patent publication US12397037B2, “Methods and compositions for immunomodulation” (CHILDREN'S MEDICAL CENTER CORPORATION, priority 2014, dated 2025).

System: U87MG cells
Test: Human Phospho-Kinase Array, U87MG cells treated with SEMA3F
Type: cell-based
Settings: 30 minutes
Experimental: FIG. 28A depicts U87MG cells untreated (control) or following treatment with SEMA3F (640 ng/ml) for 30 minutes. Cell lysates were evaluated by phosphoprotein kinase antibody array. FIG. 28B depicts results of the array validated by Western blot analysis. FIG. 28C depicts U87MG cells treated with SEMA3F (640 ng/ml) as a time course up to 60 minutes and were analyzed by Western blot. FIGS. 28B-28C are representative of 3 independent experiments. FIG. 28D depicts U87MG, Jurkat and HUVEC cells treated with SEMA3F (200, 600, 1800 ng/ml, bars from left to right) for 15 minutes (grey bars) or 30 minutes (black bars); as a positive control, HUVEC were treated with VEGF-A (25 ng/ml) for 15 and 30 minutes. In addition, HUVEC were pre-treated with SEMA3F (1800 ng/ml) or PBS as a control for 30 minutes and subsequently VEGF-A (25 ng/ml) was added to the culture for 15 and 30 minutes. PI-3K activity was analyzed by ELISA according to the manufacturer's instructions. Data represent the mean±SD of 3 experiments.
SEMA3F inhibits Akt, mTOR, and S6K phosphorylation. To determine the effect of SEMA3F on intracellular signaling responses, levels of phosphokinases in the NRP2-expressing human glioblastoma cell line U87MG were profiled.
Phospho-kinase array: The Human Phospho-Kinase Array Kit (ARY003) was obtained from R&D Systems. U87MG cells were treated with SEMA3F which was previously found to induce cytoskeletal collapse and inhibit RhoA activity (6). […] Thus, a concentration at 640 ng/ml was optimized to analyze SEMA3F signaling pathways. Cell lysates were collected at 30 minutes after SEMA3F treatment and the levels of phosphoproteins were analyzed with this array, according to the manufacturer's instructions.

B1: SEMA3F: Human recombinant full-length His-Myc-tagged SEMA3F, secreted by transfected 293T cells and purified; class 3 semaphorin, NRP-2 ligand (protein, listed as Homo sapiens)
chain: MLVAGLLLWASLLTGAWPSFPTQDHLPATPRVRLSFKELKATGTAHFFNFLLNTTDYRILLKDEDHDRMYVGSKDYVLSLDLHDINREPLIIHWAASPQRIEECVLSGKDVNGECGNFVRLIQPWNRTHLYVCGTGAYNPMCTYVNRGRRAQATPWTQTQAVRGRGSRATDGALRPMPTAPRQDYIFYLEPERLESGKGKCPYDPKLDTASALINEELYAGVYIDFMGTDAAIFRTLGKQTAMRTDQYNSRWLNDPSFIHAELIPDSAERNDDKLYFFFRERSAEAPQSPAVYARIGRICLNDDGGHCCLVNKWSTFLKARLVCSVPGEDGIETHFDELQDVFVQQTQDVRNPVIYAVFTSSGSVFRGSAVCVYSMADIRMVFNGPFAHKEGPNYQWMPFSGKMPYPRPGTCPGGTFTPSMKSTKDYPDEVINFMRSHPLMYQAVYPLQRRPLVVRTGAPYRLTTIAVDQVDAADGRYEVLFLGTDRGTVQKVIVLPKDDQELEELMLEEVEVFKDPAPVKTMTISSKRQQLYVASAVGVTHLSLHRCQAYGAACADCCLARDPYCAWDGQACSRYTASSKRRSRRQDVRHGNPIRQCRGFNSNANKNAVESVQYGVAGSAAFLECQPRSPQATVKWLFQRDPGDRRREIRAEDRFLRTEQGLLLRALQLSDRGLYSCTATENNFKHVVTRVQLHVLGRDAVHAALFPPLSMSAPPPPGAGPPTPPYQELAQLLAQPEVGLIHQYCQGYWRHVPPSPREAPGAPRSPEPQDQKKPRNRRHHPPDT
modifications: His-Myc tag
notes: Human recombinant full-length His-Myc-tagged SEMA3F, secreted by transfected 293T cells and purified; class 3 semaphorin, NRP-2 ligand
SEMA3F 640 ng/ml, Image J
  intensity of dot/phosphoprotein AMPKa1 (T174): 0.269
  intensity of dot/phosphoprotein AMPKa2 (T172): 0.300
  intensity of dot/phosphoprotein Akt (S473): 0.396
  intensity of dot/phosphoprotein Akt (T308): 0.294
  intensity of dot/phosphoprotein CREB (S133): 0.295
  intensity of dot/phosphoprotein Chk-2 (T68): 0.297
  intensity of dot/phosphoprotein ERK1/2 (T202/Y204, T185/Y187): 0.301
  intensity of dot/phosphoprotein FAK (Y397): 0.275
  intensity of dot/phosphoprotein Fqr (Y412): 0.264
  intensity of dot/phosphoprotein Fyn (Y420): 0.276
  intensity of dot/phosphoprotein GSK-3a/b (S21/S9): 0.284
  intensity of dot/phosphoprotein HSP27 (S78/S82): 0.277
  intensity of dot/phosphoprotein Hck (Y411): 0.270
  intensity of dot/phosphoprotein JNK pan (T183/Y185, T221/Y223): 0.287
  intensity of dot/phosphoprotein Lck (Y394): 0.269
  intensity of dot/phosphoprotein Lyn (Y397): 0.269
  intensity of dot/phosphoprotein MEK1/2 (S218/S222, S222/S226): 0.277
  intensity of dot/phosphoprotein MSK1/2 (S376/S360): 0.293
  intensity of dot/phosphoprotein PLCq-1 (Y783): 0.262
  intensity of dot/phosphoprotein Paxillin (Y118): 0.264
  intensity of dot/phosphoprotein Pyk2 (Y402): 0.251
  intensity of dot/phosphoprotein RSK1/2 (S221/S227): 0.307
  intensity of dot/phosphoprotein RSK1/2/3 (S380/S386/S377): 0.320
  intensity of dot/phosphoprotein STAT1 (Y701): 0.298
  intensity of dot/phosphoprotein STAT2 (Y689): 0.305
  intensity of dot/phosphoprotein STAT3 (Y705): 0.270
  intensity of dot/phosphoprotein STAT4 (Y693): 0.285
  intensity of dot/phosphoprotein STAT5a (Y694): 0.281
  intensity of dot/phosphoprotein STAT5a/b (Y694/Y699): 0.311
  intensity of dot/phosphoprotein STAT5b (Y699): 0.270
  intensity of dot/phosphoprotein STAT6 (Y641): 0.304
  intensity of dot/phosphoprotein Src (Y419): 0.289
  intensity of dot/phosphoprotein TOR (S2448): 0.281
  intensity of dot/phosphoprotein Yes (Y426): 0.289
  intensity of dot/phosphoprotein b-Catenin: 0.323
  intensity of dot/phosphoprotein c-Jun (S63): 0.263
  intensity of dot/phosphoprotein eNOS (S1177): 0.240
  intensity of dot/phosphoprotein p27 (T157): 0.249
  intensity of dot/phosphoprotein p27 (T198): 0.242
  intensity of dot/phosphoprotein p38a (T180/Y182): 0.268
  intensity of dot/phosphoprotein p53 (S15): 0.312
  intensity of dot/phosphoprotein p53 (S46): 0.321
  intensity of dot/phosphoprotein p53 (S392): 0.312
  intensity of dot/phosphoprotein p70 S6 Kinase (T229): 0.264
  intensity of dot/phosphoprotein p70 S6 Kinase (T389): 0.241
  intensity of dot/phosphoprotein p70 S6 Kinase (T421/S424): 0.299
SEMA3F vs Control, 640 ng/ml
  Ratio AMPKa1 (T174): 92.7
  Ratio AMPKa2 (T172): 94.5
  Ratio Akt (S473): 77.4
  Ratio Akt (T308): 92.6
  Ratio CREB (S133): 91.3
  Ratio Chk-2 (T68): 93.4
  Ratio ERK1/2 (T202/Y204, T185/Y187): 91.2
  Ratio FAK (Y397): 87.7
  Ratio Fqr (Y412): 94.1
  Ratio Fyn (Y420): 93.1
  Ratio GSK-3a/b (S21/S9): 91.0
  Ratio HSP27 (S78/S82): 94.0
  Ratio Hck (Y411): 91.4
  Ratio JNK pan (T183/Y185, T221/Y223): 91.5
  Ratio Lck (Y394): 94.2
  Ratio Lyn (Y397): 93.7
  Ratio MEK1/2 (S218/S222, S222/S226): 92.8
  Ratio MSK1/2 (S376/S360): 92.4
  Ratio PLCq-1 (Y783): 95.1
  Ratio Paxillin (Y118): 95.8
  Ratio Pyk2 (Y402): 93.1
  Ratio RSK1/2 (S221/S227): 97.8
  Ratio RSK1/2/3 (S380/S386/S377): 98.8
  Ratio STAT1 (Y701): 98.2
  Ratio STAT2 (Y689): 95.3
  Ratio STAT3 (Y705): 93.4
  Ratio STAT4 (Y693): 96.4
  Ratio STAT5a (Y694): 94.8
  Ratio STAT5a/b (Y694/Y699): 90.1
  Ratio STAT5b (Y699): 92.6
  Ratio STAT6 (Y641): 96.3
  Ratio Src (Y419): 91.0
  Ratio TOR (S2448): 91.8
  Ratio Yes (Y426): 94.6
  Ratio b-Catenin: 91.6
  Ratio c-Jun (S63): 94.3
  Ratio eNOS (S1177): 93.9
  Ratio p27 (T157): 94.3
  Ratio p27 (T198): 94.0
  Ratio p38a (T180/Y182): 91.8
  Ratio p53 (S15): 96.7
  Ratio p53 (S46): 93.6
  Ratio p53 (S392): 94.0
  Ratio p70 S6 Kinase (T229): 100.0
  Ratio p70 S6 Kinase (T389): 95.6
  Ratio p70 S6 Kinase (T421/S424): 97.4
